Results on 19 molecules are retold here after patent US20180155451A1 (published 2018).

Sequences and labels used below:
T1: FcγRIIb (human, UniProt P31994 43-217)
T1 construct: extracellular domain; Soluble His-tagged extracellular domain expressed in FreeStyle293 cells; also called FcgRIIb; 2b; not shown: His tag attached to the C terminus
T1 sequence (looked up): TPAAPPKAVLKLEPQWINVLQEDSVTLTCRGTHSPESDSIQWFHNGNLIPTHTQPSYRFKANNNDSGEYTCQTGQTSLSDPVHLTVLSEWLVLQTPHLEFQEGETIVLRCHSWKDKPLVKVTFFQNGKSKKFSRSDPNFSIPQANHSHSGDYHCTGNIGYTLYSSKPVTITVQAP

T2: FcγRIIa H (human, UniProt P12318 34-217)
T2 construct: extracellular domain; Soluble His-tagged extracellular domain expressed in FreeStyle293 cells; also called FcγRIIa type H; FcgRIIa H; not shown: His tag attached to the C terminus
T2 sequence (looked up): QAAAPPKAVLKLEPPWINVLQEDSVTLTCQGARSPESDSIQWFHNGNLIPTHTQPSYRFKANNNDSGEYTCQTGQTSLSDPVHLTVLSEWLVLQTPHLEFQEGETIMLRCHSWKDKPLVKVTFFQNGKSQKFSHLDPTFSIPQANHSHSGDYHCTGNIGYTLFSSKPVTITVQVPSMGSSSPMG

B1: GpH7-A5/GpH7-B3 variant S324_09D/GpL16-k0 (heterodimerized antibody, He Ab) (antibody, human IgG1, kappa)
heavy 1: not shown
heavy 2: not shown
light: DIVMTQSPLSLPVTPGEPASISCQASESLVHSNRNTYLHWYLQKPGQSPQLLIYKVSNRFSGVPDRFSGSGSGTDFTLKISRVEAEDVGVYYCSQNTHVPPTFGQGTKVEIERTVAAPSVFIFPPSDEQLKSGTASVVCLLNNFYPREAKVQWKVDNALQSGNSQESVTEQDSKDSTYSLSSTLTLSKADYEKHKVYACEVTHQGLSSPVTKSFNRGEC
notes: Mutation in one H chain only; also called S324_09D He Ab
B2: GpH7-A5/GpH7-B3 variant Y300_08L/GpL16-k0 (heterodimerized antibody, He Ab) (antibody, human IgG1, kappa)
heavy 1: not shown
heavy 2: not shown
light: B1 light
notes: Mutation in one H chain only; also called Y300_08L He Ab
B3: GpH7-B3 variant T335_05P/GpL16-k0 (homodimerized antibody, Ho Ab) (antibody, human IgG1, kappa)
heavy: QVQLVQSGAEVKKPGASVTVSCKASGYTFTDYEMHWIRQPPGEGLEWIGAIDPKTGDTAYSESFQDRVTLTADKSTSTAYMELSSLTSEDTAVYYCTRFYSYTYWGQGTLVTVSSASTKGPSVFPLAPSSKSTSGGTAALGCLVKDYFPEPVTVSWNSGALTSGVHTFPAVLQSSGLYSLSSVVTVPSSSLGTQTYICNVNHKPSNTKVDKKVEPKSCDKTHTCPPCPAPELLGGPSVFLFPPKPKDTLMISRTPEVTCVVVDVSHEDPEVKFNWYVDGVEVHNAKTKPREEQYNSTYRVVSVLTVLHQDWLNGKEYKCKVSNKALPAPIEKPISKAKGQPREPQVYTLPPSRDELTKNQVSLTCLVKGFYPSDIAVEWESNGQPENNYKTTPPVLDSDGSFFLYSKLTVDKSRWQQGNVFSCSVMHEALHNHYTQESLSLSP
light: B1 light
notes: Mutation in both H chains; also called T335_05P Ho Ab
B4: GpH7-A5/GpH7-B3 variant S298_03V/GpL16-k0 (heterodimerized antibody, He Ab) (antibody, human IgG1, kappa)
heavy 1: not shown
heavy 2: not shown
light: B1 light
notes: Mutation in one H chain only; also called S298_03V He Ab
B5: GpH7-A5/GpH7-B3 variant S239_10E/GpL16-k0 (heterodimerized antibody, He Ab) (antibody, human IgG1, kappa)
heavy 1: not shown
heavy 2: not shown
light: B1 light
notes: Mutation in one H chain only; also called S239_10E He Ab
B6: GpH7-A5/GpH7-B3 variant A327_03V/GpL16-k0 (antibody, human IgG1, kappa)
heavy 1: not shown
heavy 2: not shown
light: B1 light
notes: Heterodimerized anti-glypican-3 IgG1; mutation in the GpH7-B3 H chain only; also called He Ab
B7: GpH7-A5/GpH7-B3 variant A330_05P/GpL16-k0 (antibody, human IgG1, kappa)
heavy 1: not shown
heavy 2: not shown
light: B1 light
notes: as for B6
B8: GpH7-A5/GpH7-B3 variant L328_03V/GpL16-k0 (antibody, human IgG1, kappa)
heavy 1: not shown
heavy 2: not shown
light: B1 light
notes: as for B6
B9: GpH7-A5/GpH7-B3 variant I332_10E/GpL16-k0 (antibody, human IgG1, kappa)
heavy 1: not shown
heavy 2: not shown
light: B1 light
notes: as for B6
B10: GpH7-A5/GpH7-B3 variant L328_07I/GpL16-k0 (antibody, human IgG1, kappa)
heavy 1: not shown
heavy 2: not shown
light: B1 light
notes: as for B6
B11: GpH7-A5/GpH7-B3 variant A327_08L/GpL16-k0 (antibody, human IgG1, kappa)
heavy 1: not shown
heavy 2: not shown
light: B1 light
notes: as for B6
B12: GpH7-A5/GpH7-B3 variant A327_09D/GpL16-k0 (antibody, human IgG1, kappa)
heavy 1: not shown
heavy 2: not shown
light: B1 light
notes: as for B6
B13: GpH7-A5/GpH7-B3 variant A327_10E/GpL16-k0 (antibody, human IgG1, kappa)
heavy 1: not shown
heavy 2: not shown
light: B1 light
notes: as for B6
B14: GpH7-A5/GpH7-B3 variant L328_04F/GpL16-k0 (antibody, human IgG1, kappa)
heavy 1: not shown
heavy 2: not shown
light: B1 light
notes: as for B6
B15: GpH7-A5/GpH7-B3 variant A327_18N/GpL16-k0 (antibody, human IgG1, kappa)
heavy 1: not shown
heavy 2: not shown
light: B1 light
notes: as for B6
B16: GpH7-A5/GpH7-B3 variant A327_14T/GpL16-k0 (antibody, human IgG1, kappa)
heavy 1: not shown
heavy 2: not shown
light: B1 light
notes: as for B6
B17: GpH7-A5/GpH7-B3 variant L328_05P/GpL16-k0 (antibody, human IgG1, kappa)
heavy 1: not shown
heavy 2: not shown
light: B1 light
notes: as for B6
B18: GpH7-A5/GpH7-B3 variant L328_06M/GpL16-k0 (antibody, human IgG1, kappa)
heavy 1: not shown
heavy 2: not shown
light: B1 light
notes: as for B6
B19: GpH7-A5/GpH7-B3 variant A327_07I/GpL16-k0 (antibody, human IgG1, kappa)
heavy 1: not shown
heavy 2: not shown
light: B1 light
notes: as for B6

T3 sequence (P08637 17-208): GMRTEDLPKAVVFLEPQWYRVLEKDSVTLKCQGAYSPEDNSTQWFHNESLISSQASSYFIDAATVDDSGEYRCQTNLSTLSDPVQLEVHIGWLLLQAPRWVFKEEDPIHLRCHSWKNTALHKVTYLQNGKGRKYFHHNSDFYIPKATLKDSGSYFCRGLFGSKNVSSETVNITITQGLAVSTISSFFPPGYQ

One assay concerns the target T3, FcγRIIIa extracellular domain with C-terminal His tag (human, UniProt P08637 17-208).
T3 construct: extracellular domain; also called 3a; FcgRIIIa
As to the kind of experiment: SPR (Biacore), antibody captured on antigen-peptide chip, FcγR analyte, relative binding. A general note: SPR reads the build-up and loss of mass on a sensor chip optically.
For the molecule B1, the He/Con_3a is 101 % of GpH7-A5/GpH7-B3/GpL16-k0 (=100).

Turning to B2, the He/Con_3a was 105 % of GpH7-A5/GpH7-B3/GpL16-k0 (=100).

For B3, the Ho/Con_3a is 119 % of GpH7-B3/GpL16-k0 (=100).

For the molecule B4, the He/Con_3a was 109 % of GpH7-A5/GpH7-B3/GpL16-k0 (=100).

B5: the He/Con_3a was 181 % of GpH7-A5/GpH7-B3/GpL16-k0 (=100).

The next assay concerns the target T1, FcγRIIb. As to the kind of experiment: SPR (Biacore), captured antibody, FcγR analyte; relative to GpH7-A5/GpH7-B3/GpL16-k0 = 100. Here is the method: (§1) Analysis of interaction between objective antibody and the FcγR was carried out using Biacore T100 (GE Healthcare). HBS-EP+ (GE Healthcare) was used as the running buffer, and the measurement temperature was set to 25° C. Chips produced by immobilizing the antigen peptide by the amine coupling method to a Series S Sencor Chip CM5 (GE Healthcare), or alternatively, chips produced by allowing preliminarily biotinylated antigen peptides to interact with and immobilize onto a Series S Sensor Chip SA (certified) (GE Healthcare) were used. Antibodies of interest were captured onto an antigen peptide-immobilized chip, and allowed to interact to each FcγR diluted with running buffer. To regenerate and repeatedly use the chip, the antibodies captured on the chip were washed off by reacting 10 mM glycine-HCl, pH 1.5.
(§2) The FcγR-binding activity of each antibody was assessed primarily using as an indicator the FcγR-binding activity and dissociation constant for FcγR.
As to B6, the He/Con_2b is 94.7 relative (control = 100).

As for B7, the He/Con_2b was 137 relative (control = 100).

Take B8: the He/Con_2b is 126 relative (control = 100).

As for B9, the He/Con_2b is 142 relative (control = 100).

Turning to B10, the He/Con_2b was 160 relative (control = 100).

Regarding B11, the He/Con_2b is 63.1 relative (control = 100).

In the case of B12, the He/Con_2b was 172 relative (control = 100).

As for B13, the He/Con_2b was 140 relative (control = 100).

For the molecule B14, the He/Con_2b was 219 relative (control = 100).

Regarding B15, the He/Con_2b was 113 relative (control = 100).

With B16, the He/Con_2b was 89.4 relative (control = 100).

As to B17, the He/Con_2b was 65.1 relative (control = 100).

Consider B18, for which the He/Con_2b was 142 relative (control = 100).

On to B19, for which the He/Con_2b is 127 relative (control = 100).

A further assay has as its target T2, FcγRIIa H. The assay is described as above. On the procedure: as §1, §2
Turning to B6, the He/Con_2aH was 51 relative (control = 100).

Regarding B7, the He/Con_2aH is 85.7 relative (control = 100).

In the case of B8, the He/Con_2aH is 97.8 relative (control = 100).

Turning to B9, the He/Con_2aH is 108 relative (control = 100).

Consider B10, for which the He/Con_2aH was 93.9 relative (control = 100).

In the case of B11, the He/Con_2aH was 46.9 relative (control = 100).

Take B12: the He/Con_2aH was 105 relative (control = 100).

Turning to B13, the He/Con_2aH was 91.3 relative (control = 100).

Regarding B14, the He/Con_2aH was 71.7 relative (control = 100).

Regarding B15, the He/Con_2aH is 66.8 relative (control = 100).

For B16, the He/Con_2aH was 45.6 relative (control = 100).

In the case of B17, the He/Con_2aH was 45.4 relative (control = 100).

For B18, the He/Con_2aH is 104 relative (control = 100).

For the molecule B19, the He/Con_2aH was 58.4 relative (control = 100).

A further assay has as its target T2, FcγRIIa H. As to the kind of experiment: SPR (Biacore); He/Con_2aH divided by He/Con_2b (FcγRIIb) of the same antibody. Here is the method:
The heterodimerized antibodies He Abs in which one of the H chains was introduced with an alteration were assayed for their binding activities to each activating FcγR and inhibitory FcγR according to the method described in Example 4. […] The activating FcγRs in FIGS. 26, 27, 28, and 29 are FcγRIa, FcγRIIa (R), FcγRIIa (H), and FcγRIIIa, respectively.
as §1
The molecule B6 had a He_2aH/2b of 0.54 ratio.

B7: the He_2aH/2b amounted to 0.63 ratio.

In turn, B8 gave a He_2aH/2b of 0.78 ratio.

Regarding B9, the He_2aH/2b came to 0.76 ratio.

In turn, B10 gave a He_2aH/2b of 0.59 ratio.

B11 came in with a He_2aH/2b of 0.74 ratio.

For the molecule B12, the He_2aH/2b stood at 0.61 ratio.

In the case of B13, the He_2aH/2b turned out to be 0.65 ratio.

Regarding B14, the He_2aH/2b was 0.33 ratio.

Molecule B15 returned a He_2aH/2b of 0.59 ratio.

Turning to B16, the He_2aH/2b amounted to 0.51 ratio.

Take B17: the He_2aH/2b is 0.7 ratio.

On to B18, for which the He_2aH/2b turned out to be 0.73 ratio.

B19: the He_2aH/2b was 0.46 ratio.
